The text below walks through data of patent publication US20060234906A1, “Structure of a complex of retinoblastoma protein bound to e2f, and uses thereof” (priority 2002, published 2006).

Residues, ends and D or L forms follow the SMILES beside them. *: point of attachment. 5FAM = O=C1OC2(c3ccc(O)cc3Oc3cc(O)ccc32)c2ccc(C(=O)*)cc21

In assay [1] the target is T1, pRb (Homo sapiens, UniProt P06400).
T1 sequence (P06400 373-771 limits assumed): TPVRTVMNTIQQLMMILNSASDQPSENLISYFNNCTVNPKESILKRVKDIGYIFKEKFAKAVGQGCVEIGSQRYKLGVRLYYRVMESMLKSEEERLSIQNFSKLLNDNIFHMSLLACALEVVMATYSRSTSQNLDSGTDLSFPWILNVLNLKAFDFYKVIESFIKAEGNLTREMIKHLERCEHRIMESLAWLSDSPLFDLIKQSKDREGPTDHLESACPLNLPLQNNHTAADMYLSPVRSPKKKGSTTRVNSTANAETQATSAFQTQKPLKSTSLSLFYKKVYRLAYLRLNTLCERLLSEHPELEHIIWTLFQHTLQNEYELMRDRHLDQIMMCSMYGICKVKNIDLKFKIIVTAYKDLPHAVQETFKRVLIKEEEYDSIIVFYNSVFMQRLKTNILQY
The experiment in a line: Fluorescence polarization titration binding of fluoro-labelled peptides with pRb. From the text:
Synthetic peptides were synthesised and fluoro-tagged using either N-terminal labelling with 5 carboxyfluorescein succinimidyl ester or cysteine labelling with single isomer tetramethylrhodamine-5-maleimide. […] Fluorescein fluorescence measured at λexcite=485 and λemit=520 nm
Rhodamine fluorescence measured at λexcite=545 and λemit=580 nm
Measurements were made using BMG Fluorostar plate reader fitted with polarization optic. […] Data were fitted to a one site binding model using Graphpad prism.
pRb titration curves were performed in 96-well black plates, in a total reaction volume of 100 μL. Doubling dilutions from 10 μM stock of pRb were made in binding buffer (50 mM Tris HCl, pH7.0, 100 mM NaCl, 10 mM DTT, 0.05% NP-40) and 80 μL added in triplicate to wells. 20 μL of 2 μM fluoro-peptide was added and pipetted up and down to mix. The plate was read after 1 hr incubation at room temperature.

Assay [2] concerns the target T2, RbAB (Homo sapiens, UniProt P06400).
T2 construct: residues 372 to 589 of the A domain and 636 to 787 of the B domain; GST (with Prescission protease site) (N, cleaved yes); engineered thrombin site (LVPRGS) at the A-domain end of the A-B linker (C, cleaved yes); engineered thrombin site (LVPRGS) at the B-domain end of the A-B linker (N, cleaved yes); made in house; host or cells: E. coli
T2 sequence (P06400 whole entry, looked up): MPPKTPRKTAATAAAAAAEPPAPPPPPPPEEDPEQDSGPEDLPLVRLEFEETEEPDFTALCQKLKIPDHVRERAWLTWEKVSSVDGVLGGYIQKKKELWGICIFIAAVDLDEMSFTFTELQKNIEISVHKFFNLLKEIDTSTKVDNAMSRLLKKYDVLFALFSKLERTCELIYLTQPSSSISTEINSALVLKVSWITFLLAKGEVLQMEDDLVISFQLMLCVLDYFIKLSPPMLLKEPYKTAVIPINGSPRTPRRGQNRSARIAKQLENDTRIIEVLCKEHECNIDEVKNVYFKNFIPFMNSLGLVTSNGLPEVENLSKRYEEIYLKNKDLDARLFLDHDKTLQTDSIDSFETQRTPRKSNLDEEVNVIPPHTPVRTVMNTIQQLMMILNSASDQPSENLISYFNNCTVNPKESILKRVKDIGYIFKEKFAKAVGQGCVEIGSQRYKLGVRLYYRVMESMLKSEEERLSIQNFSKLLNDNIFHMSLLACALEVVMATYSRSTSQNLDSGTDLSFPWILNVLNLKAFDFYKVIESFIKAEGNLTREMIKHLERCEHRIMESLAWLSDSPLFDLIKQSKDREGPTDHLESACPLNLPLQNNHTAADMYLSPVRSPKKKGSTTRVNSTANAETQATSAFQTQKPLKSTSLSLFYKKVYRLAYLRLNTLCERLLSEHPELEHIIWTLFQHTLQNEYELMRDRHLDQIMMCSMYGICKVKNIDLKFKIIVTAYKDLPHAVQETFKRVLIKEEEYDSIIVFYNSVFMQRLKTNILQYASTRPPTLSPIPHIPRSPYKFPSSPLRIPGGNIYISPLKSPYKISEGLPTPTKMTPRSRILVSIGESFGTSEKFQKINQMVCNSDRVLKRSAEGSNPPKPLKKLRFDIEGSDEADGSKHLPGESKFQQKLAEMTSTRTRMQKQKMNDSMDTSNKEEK
As to the kind of experiment: RbAB. From the text:
(§1) Table printed on a drawing sheet, FIG. 2B
(§2) The patent's description of the figure: FIG. 2.
(§3) First copying reader's note: Binding constants of E2F fragments to the Rb constructs RbAB and RbABC; the error is printed in the same cell as the value.
Where the first naming reader finds the target: head: RbAB

In assay [3] the target is T3, RbABC (Homo sapiens, UniProt P06400).
T3 construct: His6-RbABC (RESIDUES 380-929); made in house; host or cells: E. coli
T3 sequence (P06400 whole entry, looked up): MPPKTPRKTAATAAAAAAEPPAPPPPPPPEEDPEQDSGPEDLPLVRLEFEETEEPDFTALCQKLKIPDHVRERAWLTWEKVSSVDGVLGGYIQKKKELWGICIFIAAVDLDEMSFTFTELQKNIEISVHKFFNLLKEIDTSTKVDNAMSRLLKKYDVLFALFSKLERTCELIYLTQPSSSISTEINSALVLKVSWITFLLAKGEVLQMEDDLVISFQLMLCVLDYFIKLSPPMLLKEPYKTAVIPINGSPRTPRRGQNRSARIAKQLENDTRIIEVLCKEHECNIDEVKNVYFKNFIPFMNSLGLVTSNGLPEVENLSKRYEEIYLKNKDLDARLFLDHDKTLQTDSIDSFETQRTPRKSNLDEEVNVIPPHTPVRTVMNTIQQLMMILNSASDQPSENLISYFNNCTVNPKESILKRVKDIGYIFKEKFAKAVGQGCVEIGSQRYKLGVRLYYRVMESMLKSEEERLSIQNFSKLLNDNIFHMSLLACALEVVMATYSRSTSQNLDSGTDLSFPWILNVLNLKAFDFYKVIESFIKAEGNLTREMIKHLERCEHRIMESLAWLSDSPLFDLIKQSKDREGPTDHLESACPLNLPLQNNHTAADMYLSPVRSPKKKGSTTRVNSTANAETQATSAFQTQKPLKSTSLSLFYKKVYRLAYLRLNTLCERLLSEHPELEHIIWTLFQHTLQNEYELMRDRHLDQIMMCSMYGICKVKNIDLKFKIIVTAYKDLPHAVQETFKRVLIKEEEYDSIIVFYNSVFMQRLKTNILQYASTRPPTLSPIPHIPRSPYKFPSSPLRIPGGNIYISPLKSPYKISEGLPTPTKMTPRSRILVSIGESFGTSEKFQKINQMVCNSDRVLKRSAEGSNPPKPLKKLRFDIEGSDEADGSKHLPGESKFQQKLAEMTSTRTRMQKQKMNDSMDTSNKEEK
The experiment in a line: RbABC.
From the text: as §1, §2, §3
Where the first naming reader finds the target: head: RbABC

The target in assay [4] is T4, recombinant pRb A/B domains with E2F(409-426) peptide (Homo sapiens, UniProt P06400).
T4 sequence (P06400 373-771 limits assumed): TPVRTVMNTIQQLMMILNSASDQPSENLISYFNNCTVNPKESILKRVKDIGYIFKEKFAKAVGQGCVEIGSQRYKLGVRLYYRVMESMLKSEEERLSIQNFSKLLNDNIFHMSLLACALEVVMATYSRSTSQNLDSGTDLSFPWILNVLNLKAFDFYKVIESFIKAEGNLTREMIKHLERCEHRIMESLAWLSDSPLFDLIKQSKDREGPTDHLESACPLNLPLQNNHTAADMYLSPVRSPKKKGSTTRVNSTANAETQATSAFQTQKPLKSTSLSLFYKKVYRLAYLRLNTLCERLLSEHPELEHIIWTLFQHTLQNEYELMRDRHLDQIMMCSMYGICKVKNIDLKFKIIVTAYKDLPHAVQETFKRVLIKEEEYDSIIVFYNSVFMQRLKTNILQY
As to the kind of experiment: Fluorescence polarization screen (384-well), fluorescein-E2F with pRb, screen controls. The class given is binding. To be noted: 1 μM pRb, 0.4 μM fluorescein-E2F. From the text:
Based on the crystal structure defined by the atomic co-ordinates in Annex 1, an FP screen was configured for the interaction of recombinant pRb A/B domains with E2F(409-426) peptide (see FIG. 1B). In addition, a second peptide binding site E7, see FIG. 1B), distant from the E2F binding pocket, was utilized as an internal control for non-specific inhibitors. Fluorophores in the form of fluorescein and rhodamine labelled peptides were synthesised and were used in a primary screen and hit confirmation.
The assay was optimised in 384-well black-plates (Matrix) and automated using a Beckman Fx liquid handling robot. 1 μM pRb in 50 mM Tris HCl, pH7.0, 100 mM NaCl, 10 mM DTT, 0.05% NP-40 was mixed with 40 μM compound (4% DMSO) and 0.4 μM fluorescein-E2F (final concentrations).
Polarized and depolarized signal from fluorescein-E2F with and without pRb present are shown in FIG. 5 (solid and open circles respectively). Specific disruption of binding by E2F protein and peptide are also shown. […] Addition of unlabelled-E2F at a concentration which gave 50% inhibition is clearly separated from the control populations. Hits were identified as compounds which reduced the polarization signal to less than mean-3sd of the fluorescein-E2F: pRb control.

Broadly, the Kd is the concentration at which binding is half-saturated. Low values mean higher affinity, high ones lower affinity. Take `CC(C)C[C@H](NC(=O)[C@H](CCC(N)=O)NC(=O)[C@H](CCC(=O)O)NC(=O)[C@H](Cc1ccc(O)cc1)NC(=O)[C@H](CS)NC(=O)[C@H](Cc1ccc(O)cc1)NC(=O)[C@H](CC(C)C)NC(=O)[C@H](CC(=O)O)NC(=O)c1ccc2c(c1)C(=O)OC21c2ccc(O)cc2Oc2cc(O)ccc21)C(=O)N[C@@H](CC(N)=O)C(=O)O` [Fluorescein-E7, N-terminal amide linkage Scarboxyfluorescein-E7, nonomer] (5FAM-DLYCYEQLN-OH; C-terminus assumed): in assay [1], the equilibrium dissociation constant (Kd) came out at 130 ± 20 nM. As for “E2F(380-437): Synthetic peptide of E2F residues 380-437 (ADSLLEHVREDFSGLLPEEFISLSPPHEALDYHFGLEEGEGIRDLFDCDFGDLTPLDF; UniProt Q01094 380-437, looked up, fragment)”, the Kd came to 160 ± 10 nM in assay [2] and 100 ± 10 nM in assay [3].

B1: E2F protein: E2F protein added as screen control that specifically disrupts binding; probably E2F(243-437) (protein, UniProt Q01094 243-437, looked up, fragment)
chain: LAYVTCQDLRSIADPAEQMVMVIKAPPETQLQAVDSSENFQISLKSKQGPIDVFLCPEETVGGISPGKTPSQEVTSEEENRATDSATIVSPPPSSPPSSLTTDPSQSLLSLEQEPLLSRMGSLRAPVDEDRLSPLVAADSLLEHVREDFSGLLPEEFISLSPPHEALDYHFGLEEGEGIRDLFDCDFGDLTPLDF
Consider B1, for which the “displacement of Fl-E2F from pRb (screen control)” value in assay [4] is reported as “completely displaces F1-E2F”.
